From publication doi:10.1101/2023.02.23.529646 (bioRxiv, 2023)

What was measured:
Experiment in all cases: mass photometry
VLCAD_(ACAD9) = biological target: T1, VLCAD_(ACAD9) (human, UniProt P49748 72-655, 437MGGMGFM443 to 437LGGLGYT443)
T1 sequence: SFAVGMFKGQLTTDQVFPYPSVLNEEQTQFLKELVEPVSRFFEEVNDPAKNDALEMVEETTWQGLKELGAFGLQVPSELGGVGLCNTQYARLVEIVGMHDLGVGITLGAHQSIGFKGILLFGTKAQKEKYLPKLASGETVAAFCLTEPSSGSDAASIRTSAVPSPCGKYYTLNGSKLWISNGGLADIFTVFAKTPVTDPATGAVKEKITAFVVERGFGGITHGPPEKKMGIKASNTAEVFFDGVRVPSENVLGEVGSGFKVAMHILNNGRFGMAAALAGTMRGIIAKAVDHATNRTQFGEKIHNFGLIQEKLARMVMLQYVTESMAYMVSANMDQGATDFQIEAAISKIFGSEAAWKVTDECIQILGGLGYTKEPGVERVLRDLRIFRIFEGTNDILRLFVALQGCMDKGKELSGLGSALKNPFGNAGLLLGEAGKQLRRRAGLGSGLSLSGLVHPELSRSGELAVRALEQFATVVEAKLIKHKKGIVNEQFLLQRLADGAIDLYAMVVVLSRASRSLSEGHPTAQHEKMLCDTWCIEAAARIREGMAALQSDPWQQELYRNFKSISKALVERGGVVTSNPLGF

ACAD9WT (res. 38-621) = biological target: T2, ACAD9WT (res. 38-621) (human, UniProt Q9H845 38-621)
T2 sequence: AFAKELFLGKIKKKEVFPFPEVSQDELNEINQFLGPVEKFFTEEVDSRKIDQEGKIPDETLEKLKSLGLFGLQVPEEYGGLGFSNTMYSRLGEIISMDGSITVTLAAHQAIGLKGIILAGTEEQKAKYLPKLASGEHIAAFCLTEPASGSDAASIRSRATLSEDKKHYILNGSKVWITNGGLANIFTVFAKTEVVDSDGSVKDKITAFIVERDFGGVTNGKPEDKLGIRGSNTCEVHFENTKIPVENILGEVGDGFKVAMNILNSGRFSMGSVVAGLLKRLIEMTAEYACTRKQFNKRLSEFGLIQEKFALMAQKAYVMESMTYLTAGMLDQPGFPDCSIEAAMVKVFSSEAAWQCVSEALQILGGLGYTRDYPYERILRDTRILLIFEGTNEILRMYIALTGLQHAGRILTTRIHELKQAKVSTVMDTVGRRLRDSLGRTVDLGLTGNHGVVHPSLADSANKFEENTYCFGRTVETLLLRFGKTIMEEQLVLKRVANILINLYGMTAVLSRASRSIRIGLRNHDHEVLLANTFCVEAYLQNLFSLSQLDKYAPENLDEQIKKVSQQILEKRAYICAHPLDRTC

ACAD9_(A184S/SR194TS) = biological target: T3, ACAD9_(A184S/SR194TS) (human, UniProt Q9H845 38-621, A184S | SR194TS)
T3 sequence: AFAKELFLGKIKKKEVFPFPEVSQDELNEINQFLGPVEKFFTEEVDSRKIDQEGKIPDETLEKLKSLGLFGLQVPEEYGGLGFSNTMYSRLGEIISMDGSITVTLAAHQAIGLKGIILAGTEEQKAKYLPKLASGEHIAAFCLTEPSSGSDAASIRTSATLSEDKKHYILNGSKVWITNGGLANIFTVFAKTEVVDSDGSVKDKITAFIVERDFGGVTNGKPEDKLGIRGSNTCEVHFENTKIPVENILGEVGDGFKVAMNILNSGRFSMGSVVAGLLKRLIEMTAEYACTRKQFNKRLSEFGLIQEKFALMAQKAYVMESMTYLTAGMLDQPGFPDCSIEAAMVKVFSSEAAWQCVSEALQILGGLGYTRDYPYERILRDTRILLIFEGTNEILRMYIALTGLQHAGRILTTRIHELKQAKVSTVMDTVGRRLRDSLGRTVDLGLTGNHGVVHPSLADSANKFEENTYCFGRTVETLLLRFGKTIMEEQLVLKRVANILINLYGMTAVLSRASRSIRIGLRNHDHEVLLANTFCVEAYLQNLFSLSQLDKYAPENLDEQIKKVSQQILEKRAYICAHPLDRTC

B1: ECSIT_(CTER) (residues 221-431) (domain or fragment)
chain: QDPVELAMFGLRHMEPDLSARVTIYQVPLPKDSTGAADPPQPHIVGIQSPDQQAALARHNPARPVFVEGPFSLWLRNKCVYYHILRADLLPPEEREVEETPEEWNLYYPMQLDLEYVRSGWDNYEFDINEVEEGPVFAMCMAGAHDQATMAKWIQGLQETNPTLAQIPVVFRLAGSTRELQTSSAGLEEPPLPEDHQEEDDNLQRQQQGQS
VLCAD_(ACAD9)
  binding result: binds
ACAD9WT (res. 38-621)
  stoichiometry N: 2 ECSIT_(CTER) monomers per ACAD9 dimer
ACAD9_(A184S/SR194TS)
  binding result: binds
